Data set [1] addresses MspA-((Del-L74/G75/D118/L119)G1A/D56N/E59F/L88N/D90N/D91N/Q126R/D134R/E139K)8.
Data set [2] addresses MspA-((Del-L74/G75/D118/L119)D56F/E59R/L88N/D90N/D91N/Q126R/D134R/E139K)8.

B1: T4 Dda-E94C/C109A/C136A/K199L/A360C (protein)
chain: MTFDDLTEGQKNAFNIVMKAIKEKKHHVTINGPAGTGKTTLTKFIIEALISTGETGIILAAPTHAAKKILSKLSGKEASTIHSILKINPVTYECNVLFEQKEVPDLAKARVLICDEVSMYDRKLFKILLSTIPPWATIIGIGDNKQIRPVDPGENTAYISPFFTHKDFYQCELTEVKRSNAPIIDVATDVRNGKWIYDLVVDGHGVRGFTGDTALRDFMVNYFSIVKSLDDLFENRVMAFTNKSVDKLNSIIRKKIFETDKDFIVGEIIVMQEPLFKTYKIDGKPVSEIIFNNGQLVRIIEAEYTSTFVKARGVPGEYLIRHWDLTVETYGDDEYYREKIKIISSDEELYKFNLFLGKTCETYKNWNKGGKAPWSDFWDAKSQFSKVKALPASTFHKAQGMSVDRAFIYTPCIHYADVELAQQLLYVGVTRGRYDVFYV
Regarding B1, in data set [1], the “% bases missed in construct X” value was “the lowest % bases missed in construct X” and the “slips forward per kilobase” value is recorded as “less than 5 slips forward per kilobase”. The “slips forward per kilobase” value in data set [2] is recorded as “less than 5 slips forward per kilobase”.

(Values after US20240060126.)
